“Also recorded” adds a separate entry of the source.
Target: T1, Aβ (1-40) (Homo sapiens, UniProt P05067)
T1 construct: 2 μg of Aβ (1-40)(Bachem Inc., Torrance, Calif. USA; Lot #WM365); purchased Bachem Inc., Torrance, Calif; Lot #WM365
Assay: Thioflavin T fluorometry, Aβ (1-40) amyloid fibril formation
Assay type: biochemical
Conditions: for dose dependence of inhibition of Aβ fibril formation, in words: 5 nM, 15 nM, 40 nM and 100 nM laminin, 1 week (FIG. 4); for fold inhibition of Aβ (1-40) amyloid fibril formation (fluorescence lower than Aβ alone): 37° C.; for fold decrease of Aβ fibrillogenesis: comparison study (FIG. 3); for inhibition of Aβ fibril formation, in words: dose study (FIG. 4), 3 days and 7 days
Experimental: The effects of laminin on Aβ fibrillogenesis was also determined using the previously described method of Thioflavin T fluorometry (Naiki et al, Lab. Invest. 65:104-110, 1991; Levine III, Protein Sci. 2:404-410, 1993; Levine III, Int. J. Exp. Clin. Invest. 2:1-6, 1995; Naiki and Nakakuki, Lab. Invest. 74:374-383, 1996). In this assay, Thioflavin T binds specifically to fibrillar amyloid and this binding produces a fluorescence enhancement at 480 nm that is directly proportional to the amount of amyloid fibrils formed (Naiki et al, Lab. Invest. 65:104-110, 1991; Levine III, Protein Sci. 2:404-410, 1993; Levine III, Int. J. Exp. Clin. Invest. 2:1-6, 1995; Naiki and Nakakuki, Lab. Invest. 74:374-383, 1996). In a first study, the effects of EHS laminin on Aβ (1-40) fibrillogenesis was assessed. For this study, 25 μM of freshly solubilized Aβ (1-40)(Bachem Inc., Torrance, Calif., USA; Lot #WM365) was incubated in microcentrifuge tubes at 37° C. for 1 week (in triplicate), either alone, or in the presence of 100 nM EHS laminin (Sigma Chemical Company, St. Louis, Mo., USA) in 100 mM Tris, 50 mM NaCl, pH 7.0 (TBS). 100 nM of laminin utilized for these studies represented a Aβ:laminin molar ratio of 250:1. 50 μl aliquots were then taken from each tube for analysis at 1 hr, 1 day, 3 days, and 1 week. In a second set of studies, the effects of laminin on Aβ (1 -40) fibril formation was directly compared to other basement membrane components including fibronectin, type IV collagen and perlecan. For these studies, 25 μM of freshly solubilized Aβ (1-40) was incubated in microcentrifuge tubes for 1 week (in triplicate) either alone, or in the presence of 100 nM of EHS perlecan (isolated as previously described)(Castillo et al, J. Biochem. 120:433-444, 1996), fibronectin (Sigma Chemical Company, St. Louis, Mo., USA) or type IV collagen (Sigma Chemical Company, St. Louis, Mo., USA). 50 ul aliquots were then taken for analysis at 1 hour, 1 day, 3 days and 1 week. In a third set of studies, 25 μM of freshly solubilized Aβ (1-40) was incubated in microcentrifuge tubes for 1 week (in triplicate) either alone, or in the presence of increasing concentrations of laminin (i.e. 5 nM, 15 nM, 40 nM and 100 nM). 50 μl aliquots were taken for analysis at 1 hour, 1 day, 3 days and 1 week.
For each determination described above, following each incubation period, Aβ peptides +/− laminin, perlecan, fibronectin or type IV collagen, were added to 1.2 ml of 100 μM Thioflavin T (Sigma Chemical Co., St. Louis, Mo.) in 50 mM phosphate buffer (pH 6.0). Fluorescence emission at 480 nm was measured on a Turner instrument-model 450 fluorometer at an excitation wavelength of 450 nm. For each determination, the fluorometer was calibrated by zeroing in the presence of the Thioflavin T reagent alone, and by seting the 50 ng/ml riboflavin (Sigma Chemical Co., St. Louis, Mo.) in the Thioflavin T reagent to 1800 fluorescence units. All fluorescence determinations were based on these references and any background fluorescence given off by laminin, perlecan, type IV collagen, or fibronectin alone in the presence of the Thioflavin T reagent was always subtracted from all pertinent readings.

T1 sequence (P05067 672-711 limits assumed): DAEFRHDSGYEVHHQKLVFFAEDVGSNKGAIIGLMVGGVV

Question: Which results are given for “laminin: Engelbreth-Holm-Swarm (EHS) mouse tumor laminin (Sigma); 850 kDa basement membrane glycoprotein of A, B1 and B2 chains”?
Answer: dose dependence of inhibition of Aβ fibril formation, in words: dose-dependent manner; also recorded: Significant dose-dependent inhibition; dose dependence of inhibition of Aβ fibril formation, in words (listed as Laminin): dose-dependent manner; fold inhibition of Aβ (1-40) amyloid fibril formation (fluorescence lower than Aβ alone) (25 μM Aβ (1-40), 100 nM laminin, 1 week (FIG. 2)): 27.1 fold; fold inhibition of Aβ (1-40) amyloid fibril formation (fluorescence lower than Aβ alone) (25 μM Aβ (1-40), 100 nM laminin, 1 hour (FIG. 2)): 2.9 fold; fold inhibition of Aβ (1-40) amyloid fibril formation (fluorescence lower than Aβ alone) (25 μM Aβ (1-40), 100 nM laminin, 1 day (FIG. 2)): 4.6 fold; fold inhibition of Aβ (1-40) amyloid fibril formation (fluorescence lower than Aβ alone) (25 μM Aβ (1-40), 100 nM laminin, 3 days (FIG. 2)): 30.6 fold; effect on Aβ (1-40) fibrillogenesis, in words (comparison of basement membrane components (FIG. 3), 25 μM Aβ (1-40), 100 nM, 1 hour to 1 week): potent inhibitory effect; fold decrease of Aβ fibrillogenesis (25 μM Aβ (1-40), 100 nM, 1 week): 21 fold; fold decrease of Aβ fibrillogenesis (25 μM Aβ (1-40), 100 nM, 1 day): 9 fold; fold decrease of Aβ fibrillogenesis (25 μM Aβ (1-40), 100 nM, 3 days): 9 fold; inhibition of Aβ fibril formation, in words (40 nM laminin): significantly inhibited; inhibition of Aβ fibril formation, in words (100 nM laminin, 1 hour, 1 day): significantly inhibited

Reference: patent US7314724B2, “Therapeutic applications of laminin and laminin-derived protein fragments” (University of Washington, priority 1996, dated 2008)
